Columns and labels:
Experiment in all cases: purified protein
Format in all cases: biochemical, Trichomonas vaginalis
Conditions in all cases: NADPH co-substrate, 100 mM potassium phosphate pH 5.5, 37 °C
[1] = tested on: Cc1cc2nc3c(=O)[nH]c(=O)nc-3n(C[C@H](O)[C@H](O)[C@H](O)COP(=O)(O)O)c2cc1C
[2] = tested on: Cc1cc2nc3c(=O)[nH]c(=O)nc-3n(C[C@H](O)[C@H](O)[C@H](O)COP(=O)(O)OP(=O)(O)OC[C@H]3O[C@@H](n4cnc5c(N)ncnc54)[C@H](O)[C@@H]3O)c2cc1C
[3] = tested on: Cc1cc2nc3c(=O)[nH]c(=O)nc-3n(C[C@H](O)[C@H](O)[C@H](O)CO)c2cc1C

Row | Substance | Km [1] [µM] | Km [2] [µM] | Km [3] [µM]
1 | Flavin reductase 1 (FR1) (Trichomonas vaginalis G3) | 10 ± 1.4 | 16.5 ± 2.5 | –
2 | Flavin reductase 5 (FR5) (Trichomonas vaginalis G3) | 186.9 ± 30.3 | 267.4 ± 21.6 | 94.4 ± 11.5
3 | Flavin reductase 6 (FR6) (Trichomonas vaginalis G3) | 160 ± 23.9 | 192.1 ± 12.2 | 97.5 ± 28.8
